Results as given in the supplement of paper PMC10065799, “High-throughput profiling of sequence recognition by tyrosine kinases and SH2 domains using bacterial peptide display” (eLife, 2023).

Columns and labels:
Grb2 SH2 = Grb2 SH2 (UniProt P62993); assay: SH2 binding enrichment of the phosphorylated peptide, bacterial display (enrichment ratio); higher = better substrate or ligand; peptides without Tyr show the background
SHP2-C SH2 = assay: as above
c-Src SH2 = assay: as above
c-Src = assay: phosphorylation enrichment, bacterial display (enrichment ratio); higher = better substrate or ligand; peptides without Tyr show the background
FGFR3 = FGFR3 (UniProt P22607); assay: as above
Chain of FGFR3 (P22607 whole entry, looked up): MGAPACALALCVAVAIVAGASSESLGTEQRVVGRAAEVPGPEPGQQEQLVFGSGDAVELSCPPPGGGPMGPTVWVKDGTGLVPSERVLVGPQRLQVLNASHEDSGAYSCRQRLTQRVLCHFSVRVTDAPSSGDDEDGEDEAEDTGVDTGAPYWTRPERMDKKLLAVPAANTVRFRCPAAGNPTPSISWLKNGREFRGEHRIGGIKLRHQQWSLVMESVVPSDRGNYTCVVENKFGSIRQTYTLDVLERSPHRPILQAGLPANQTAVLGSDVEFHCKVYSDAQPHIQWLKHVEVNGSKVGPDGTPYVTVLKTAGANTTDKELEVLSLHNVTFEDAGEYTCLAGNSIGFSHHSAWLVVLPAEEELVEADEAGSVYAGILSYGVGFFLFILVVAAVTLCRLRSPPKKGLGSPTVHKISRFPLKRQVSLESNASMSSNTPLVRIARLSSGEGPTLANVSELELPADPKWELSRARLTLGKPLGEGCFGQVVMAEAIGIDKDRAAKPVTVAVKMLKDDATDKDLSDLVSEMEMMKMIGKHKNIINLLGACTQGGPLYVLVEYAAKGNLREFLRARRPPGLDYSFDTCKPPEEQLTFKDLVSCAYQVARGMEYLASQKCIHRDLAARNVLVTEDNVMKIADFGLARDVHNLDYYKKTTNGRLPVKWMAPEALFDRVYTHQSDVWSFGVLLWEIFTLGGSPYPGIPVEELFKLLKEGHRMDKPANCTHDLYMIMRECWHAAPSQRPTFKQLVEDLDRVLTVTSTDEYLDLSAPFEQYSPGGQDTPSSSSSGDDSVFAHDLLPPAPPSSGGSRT

Fes = Fes (UniProt P07332); assay: as above
c-Abl (mouse) = assay: as above
FGFR1 = FGFR1 (UniProt P11362); assay: as above
Chain of FGFR1 (P11362 whole entry, looked up): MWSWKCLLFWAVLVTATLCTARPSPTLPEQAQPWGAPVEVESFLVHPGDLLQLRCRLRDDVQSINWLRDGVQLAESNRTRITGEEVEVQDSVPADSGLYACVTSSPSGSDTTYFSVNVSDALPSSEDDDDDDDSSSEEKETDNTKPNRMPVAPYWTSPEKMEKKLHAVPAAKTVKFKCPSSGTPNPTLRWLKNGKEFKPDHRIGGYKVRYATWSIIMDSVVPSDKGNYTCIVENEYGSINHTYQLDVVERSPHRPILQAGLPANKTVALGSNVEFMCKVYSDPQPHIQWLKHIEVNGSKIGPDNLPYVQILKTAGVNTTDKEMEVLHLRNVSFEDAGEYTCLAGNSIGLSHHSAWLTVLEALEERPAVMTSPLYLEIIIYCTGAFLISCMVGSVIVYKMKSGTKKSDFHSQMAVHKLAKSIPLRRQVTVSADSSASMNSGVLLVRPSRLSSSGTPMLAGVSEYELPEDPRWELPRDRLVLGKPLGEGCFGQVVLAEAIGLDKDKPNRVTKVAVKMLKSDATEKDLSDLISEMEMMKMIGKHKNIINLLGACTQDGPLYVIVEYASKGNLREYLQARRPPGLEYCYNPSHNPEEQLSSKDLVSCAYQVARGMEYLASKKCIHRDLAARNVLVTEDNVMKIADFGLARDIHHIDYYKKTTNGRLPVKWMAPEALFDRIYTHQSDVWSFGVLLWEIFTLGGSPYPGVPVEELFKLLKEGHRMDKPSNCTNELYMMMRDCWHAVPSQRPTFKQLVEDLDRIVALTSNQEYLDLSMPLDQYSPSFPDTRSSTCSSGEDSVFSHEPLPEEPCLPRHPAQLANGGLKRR

Fyn = Fyn (UniProt P06241); assay: as above
Chain of Fyn (P06241 whole entry, looked up): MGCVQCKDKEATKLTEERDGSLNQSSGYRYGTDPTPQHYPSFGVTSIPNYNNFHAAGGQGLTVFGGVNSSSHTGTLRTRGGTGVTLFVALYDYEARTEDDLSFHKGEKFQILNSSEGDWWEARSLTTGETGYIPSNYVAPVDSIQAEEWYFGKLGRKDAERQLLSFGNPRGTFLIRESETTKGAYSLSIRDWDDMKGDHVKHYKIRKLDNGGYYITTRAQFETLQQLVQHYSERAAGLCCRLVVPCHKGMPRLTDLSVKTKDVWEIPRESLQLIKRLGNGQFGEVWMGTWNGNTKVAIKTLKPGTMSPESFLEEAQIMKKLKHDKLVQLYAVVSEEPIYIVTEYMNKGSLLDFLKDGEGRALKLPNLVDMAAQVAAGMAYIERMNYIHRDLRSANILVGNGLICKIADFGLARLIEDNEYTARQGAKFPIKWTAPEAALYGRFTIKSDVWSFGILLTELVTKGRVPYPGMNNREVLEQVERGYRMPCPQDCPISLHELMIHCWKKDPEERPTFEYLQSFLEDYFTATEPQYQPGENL

Jak2 = Jak2 (UniProt O60674); assay: as above
Fer (mouse) = assay: as above
MERTK = MERTK (UniProt Q12866); assay: as above
Chain of MERTK (Q12866 whole entry, looked up): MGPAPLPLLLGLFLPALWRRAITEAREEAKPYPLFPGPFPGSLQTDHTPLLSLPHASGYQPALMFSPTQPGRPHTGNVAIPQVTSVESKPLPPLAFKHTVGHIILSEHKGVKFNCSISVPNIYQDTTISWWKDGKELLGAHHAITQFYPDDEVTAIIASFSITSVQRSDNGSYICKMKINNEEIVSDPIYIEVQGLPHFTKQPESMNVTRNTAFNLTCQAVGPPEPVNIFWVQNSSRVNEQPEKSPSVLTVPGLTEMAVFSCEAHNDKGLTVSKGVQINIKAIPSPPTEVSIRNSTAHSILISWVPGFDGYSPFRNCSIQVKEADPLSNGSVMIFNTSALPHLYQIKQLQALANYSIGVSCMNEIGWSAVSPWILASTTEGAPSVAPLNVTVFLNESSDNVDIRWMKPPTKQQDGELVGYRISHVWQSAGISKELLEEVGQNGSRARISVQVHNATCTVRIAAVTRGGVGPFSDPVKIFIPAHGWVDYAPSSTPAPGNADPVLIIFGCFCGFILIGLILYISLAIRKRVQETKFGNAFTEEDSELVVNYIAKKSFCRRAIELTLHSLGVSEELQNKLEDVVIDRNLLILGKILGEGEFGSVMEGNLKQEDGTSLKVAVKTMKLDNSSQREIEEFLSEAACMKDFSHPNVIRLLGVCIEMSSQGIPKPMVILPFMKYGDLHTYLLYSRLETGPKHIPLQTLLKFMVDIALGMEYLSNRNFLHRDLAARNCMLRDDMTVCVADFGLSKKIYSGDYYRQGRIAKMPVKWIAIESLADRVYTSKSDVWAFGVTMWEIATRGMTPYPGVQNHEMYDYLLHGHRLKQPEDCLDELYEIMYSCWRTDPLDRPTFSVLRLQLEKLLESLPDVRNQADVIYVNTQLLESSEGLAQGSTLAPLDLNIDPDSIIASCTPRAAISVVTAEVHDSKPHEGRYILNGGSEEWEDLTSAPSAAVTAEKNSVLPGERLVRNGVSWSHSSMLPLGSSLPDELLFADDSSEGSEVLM

Hck = Hck (UniProt P08631); assay: as above
Chain of Hck (P08631 whole entry, looked up): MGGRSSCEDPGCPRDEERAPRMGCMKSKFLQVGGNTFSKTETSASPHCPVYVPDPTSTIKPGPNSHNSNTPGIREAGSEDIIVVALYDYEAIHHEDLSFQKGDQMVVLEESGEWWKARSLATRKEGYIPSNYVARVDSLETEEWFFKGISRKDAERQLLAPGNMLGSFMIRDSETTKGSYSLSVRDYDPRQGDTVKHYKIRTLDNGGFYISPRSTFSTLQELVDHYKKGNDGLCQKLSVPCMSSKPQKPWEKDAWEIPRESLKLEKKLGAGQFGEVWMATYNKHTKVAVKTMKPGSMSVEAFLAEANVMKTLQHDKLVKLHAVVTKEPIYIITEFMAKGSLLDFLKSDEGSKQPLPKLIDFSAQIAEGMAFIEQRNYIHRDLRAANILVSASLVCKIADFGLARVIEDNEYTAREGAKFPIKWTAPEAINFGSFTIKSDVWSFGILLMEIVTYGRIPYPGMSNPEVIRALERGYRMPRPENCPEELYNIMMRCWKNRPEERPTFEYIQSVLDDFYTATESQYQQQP

EPHB2 = EPHB2 (UniProt P29323); assay: as above
Chain of EPHB2 (P29323 whole entry, looked up): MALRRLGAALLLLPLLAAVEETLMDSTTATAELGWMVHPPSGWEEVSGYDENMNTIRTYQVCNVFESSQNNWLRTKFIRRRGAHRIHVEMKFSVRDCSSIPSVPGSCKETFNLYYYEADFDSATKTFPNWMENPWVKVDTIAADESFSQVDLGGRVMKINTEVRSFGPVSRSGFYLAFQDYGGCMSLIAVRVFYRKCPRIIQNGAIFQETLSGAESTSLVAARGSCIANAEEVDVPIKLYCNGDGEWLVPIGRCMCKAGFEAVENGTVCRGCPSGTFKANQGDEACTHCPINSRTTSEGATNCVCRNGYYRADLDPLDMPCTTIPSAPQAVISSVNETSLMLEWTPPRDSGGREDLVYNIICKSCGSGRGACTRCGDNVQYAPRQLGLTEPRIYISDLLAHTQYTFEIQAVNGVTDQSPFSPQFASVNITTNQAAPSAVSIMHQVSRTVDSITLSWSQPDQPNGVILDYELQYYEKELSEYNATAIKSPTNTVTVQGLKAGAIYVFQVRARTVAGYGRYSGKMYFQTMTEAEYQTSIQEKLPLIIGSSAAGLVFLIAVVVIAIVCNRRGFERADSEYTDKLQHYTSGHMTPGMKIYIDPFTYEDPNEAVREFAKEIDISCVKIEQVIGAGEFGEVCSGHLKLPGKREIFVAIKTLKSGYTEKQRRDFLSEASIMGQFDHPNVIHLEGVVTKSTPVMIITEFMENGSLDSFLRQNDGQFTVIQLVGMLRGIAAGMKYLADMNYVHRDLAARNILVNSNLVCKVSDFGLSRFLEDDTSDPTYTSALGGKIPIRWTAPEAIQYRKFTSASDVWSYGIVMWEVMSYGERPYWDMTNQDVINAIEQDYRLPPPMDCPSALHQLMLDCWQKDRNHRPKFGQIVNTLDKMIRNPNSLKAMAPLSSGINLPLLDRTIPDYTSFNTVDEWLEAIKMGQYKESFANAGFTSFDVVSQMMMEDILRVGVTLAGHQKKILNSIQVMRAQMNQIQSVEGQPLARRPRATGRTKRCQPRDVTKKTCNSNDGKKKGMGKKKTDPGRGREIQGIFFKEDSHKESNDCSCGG

AncSZ = assay: as above
EPHB1 = EPHB1 (UniProt P54762); assay: as above
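For SH2 binding enrichment of the phosphorylated peptide, bacterial display in this document: peptide library displayed on the E. coli surface as eCPX fusions, selected cells deep-sequenced, score is each peptide's frequency after selection divided by its frequency in the input.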
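For phosphorylation enrichment, bacterial display in this document: 11-residue human phosphosite peptides and single-mutation variants displayed on the E. coli surface, counted by deep sequencing, each peptide's frequency after selection divided by its frequency in the unselected input library; frequency after pTyr selection over input frequency; kinase dosed for 20-30% of maximal phosphorylation in three min.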

Chain of Grb2 SH2 (P62993 whole entry, looked up): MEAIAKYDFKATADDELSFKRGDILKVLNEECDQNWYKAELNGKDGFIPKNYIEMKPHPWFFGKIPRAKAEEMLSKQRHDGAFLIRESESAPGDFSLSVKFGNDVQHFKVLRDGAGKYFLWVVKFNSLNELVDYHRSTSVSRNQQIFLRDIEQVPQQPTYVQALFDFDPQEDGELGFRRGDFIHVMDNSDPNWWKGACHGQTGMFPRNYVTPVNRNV

| Sequence | SH2 binding enrichment (Grb2 SH2) | SH2 binding enrichment (SHP2-C SH2) | SH2 binding enrichment (c-Src SH2) | phosphorylation enrichment (c-Src) | phosphorylation enrichment (FGFR3) | phosphorylation enrichment (Fes) | phosphorylation enrichment (c-Abl (mouse)) | phosphorylation enrichment (FGFR1) | phosphorylation enrichment (Fyn) | phosphorylation enrichment (Jak2) | phosphorylation enrichment (Fer (mouse)) | phosphorylation enrichment (MERTK) | phosphorylation enrichment (Hck) | phosphorylation enrichment (EPHB2) | phosphorylation enrichment (AncSZ) | phosphorylation enrichment (EPHB1) |
| --- | --- | --- | --- | --- | --- | --- | --- | --- | --- | --- | --- | --- | --- | --- | --- | --- |
| NHYKIYNLCAE [PTEN_Y68] | 0.941 | 0.826 | 1.2 | 2.05 | 0.77 | 0.784 | 0.547 | 0.409 | 1.61 | 0.493 | 0.439 | 0.407 | 0.85 | 0.442 | 0.579 | 0.432 |
| NIQKKYYRAIL [CHD7_Y1217] | 1.09 | 1.09 | 0.898 | 0.371 | 0.595 | 0.543 | 0.563 | 0.472 | 0.443 | 0.494 | 0.533 | 0.345 | 0.355 | 0.375 | 0.502 | 0.346 |
| NLDCFYQQVTK [SEC16A_Y1041_R1039C] | 1.1 | 0.845 | 0.947 | 1.31 | 0.786 | 1.31 | 0.831 | 0.934 | 0.675 | 1.15 | 2.22 | 0.856 | 1.91 | 1.08 | 1.54 | 1.1 |
| NLSVHYDSSLK [ABCC8_Y1353_R1352H] | 0.793 | 0.547 | 0.509 | 0.342 | 0.603 | 0.922 | 0.548 | 0.522 | 0.424 | 0.612 | 0.437 | 0.339 | 0.453 | 0.82 | 0.952 | 0.579 |
| NLTVNYKKNLT [SQOR_Y259_I264T] | 0.93 | 0.482 | 0.381 | 0.502 | 0.615 | 1.24 | 1.03 | 0.376 | 0.608 | 1.05 | 0.503 | 0.547 | 0.539 | 0.629 | 0.883 | 0.429 |
| NNIDYYKNTTN [FGFR2_Y657_K659N] | 1.27 | 0.73 | 0.546 | 0.387 | 0.605 | 0.745 | 0.446 | 0.552 | 0.417 | 0.596 | 0.648 | 0.32 | 0.512 | 0.473 | 0.756 | 0.359 |
| NNRVFYDNSDR [RS1_Y177_G178D] | 0.883 | 0.744 | 0.675 | 0.409 | 0.471 | 0.628 | 0.453 | 0.435 | 0.45 | 0.499 | 0.471 | 0.42 | 0.4 | 0.442 | 0.603 | 0.412 |
| NNVEQYQAMVT [TPR_Y965_S960N] | 0.67 | 0.765 | 0.754 | 0.485 | 0.721 | 1.14 | 0.683 | 0.581 | 0.542 | 0.779 | 0.528 | 0.523 | 0.551 | 0.634 | 1.08 | 0.599 |
| NPPGMHPVTGP [LPP_Y346_Y346H] | 0.861 | 0.747 | 0.45 | 0.358 | 0.331 | 0.516 | 0.997 | 0.361 | 0.353 | 0.474 | 0.286 | 0.35 | 0.28 | 0.332 | 0.534 | 0.299 |
| NPQKSYFIHLF [WAS_Y83_R86H_YF] | 1.19 | 1.08 | 0.604 | 0.399 | 0.73 | 1.32 | 0.77 | 0.475 | 0.396 | 1.29 | 0.449 | 0.384 | 0.431 | 0.512 | 0.93 | 0.644 |
| NPQKSYLIRLY [WAS_Y83_F84L] | 1.22 | 1.15 | 0.874 | 0.374 | 0.65 | 0.989 | 0.522 | 0.471 | 0.408 | 0.74 | 0.395 | 0.388 | 0.47 | 0.49 | 0.827 | 0.603 |
| NPSYNYEIVNR [DYNC1H1_Y3379] | 0.675 | 0.602 | 0.82 | 0.519 | 0.572 | 0.776 | 0.562 | 0.552 | 0.479 | 0.656 | 1.26 | 0.725 | 0.737 | 6.48 | 0.898 | 13 |
| NTFEKYLEEEF [TF_Y669_G671E_YF] | 0.781 | 0.66 | 0.572 | 0.495 | 0.754 | 1.26 | 0.692 | 0.407 | 0.389 | 1.17 | 0.551 | 0.426 | 0.497 | 0.61 | 1.25 | 0.6 |
| NTVDFYDLFGG [PTPN11_Y63_G60V_YF] | 0.997 | 0.812 | 0.665 | 2.56 | 0.644 | 0.951 | 0.576 | 0.458 | 4.46 | 0.926 | 0.953 | 1.23 | 3.05 | 0.618 | 1.06 | 0.576 |
| NVKGIYAVADV [GSR_Y371_G374A] | 0.826 | 0.599 | 1.44 | 3.12 | 0.687 | 0.82 | 16.5 | 0.506 | 3.67 | 0.678 | 2.06 | 6.08 | 3.79 | 3.77 | 0.977 | 2.06 |
| NYGTNYRVGSS [CPO_Y278_K273N] | 0.924 | 0.639 | 0.55 | 0.425 | 0.389 | 0.503 | 0.372 | 0.357 | 0.463 | 0.441 | 0.719 | 0.368 | 0.465 | 0.681 | 0.458 | 0.493 |
| PADRAYSWYQH [NDST1_Y711] | 0.747 | 0.47 | 0.753 | 1.77 | 1.16 | 1.61 | 1.58 | 1.33 | 0.617 | 1.68 | 15.8 | 2.86 | 0.888 | 0.817 | 0.98 | 1.19 |

| Sequence | SH2 binding enrichment (Grb2 SH2) | SH2 binding enrichment (SHP2-C SH2) | SH2 binding enrichment (c-Src SH2) | phosphorylation enrichment (c-Src) | phosphorylation enrichment (FGFR3) | phosphorylation enrichment (Fes) | phosphorylation enrichment (c-Abl (mouse)) | phosphorylation enrichment (FGFR1) | phosphorylation enrichment (Fyn) | phosphorylation enrichment (Jak2) | phosphorylation enrichment (Fer (mouse)) | phosphorylation enrichment (MERTK) | phosphorylation enrichment (Hck) | phosphorylation enrichment (EPHB2) | phosphorylation enrichment (AncSZ) | phosphorylation enrichment (EPHB1) |
| --- | --- | --- | --- | --- | --- | --- | --- | --- | --- | --- | --- | --- | --- | --- | --- | --- |
| PCNLIYFGEHP [TRPV6_Y201] | 1.48 | 1.15 | 0.976 | 12.2 | 1.68 | 2.64 | 2.89 | 1.76 | 3.66 | 3.44 | 1.07 | 2.21 | 2.08 | 0.745 | 3.19 | 1.17 |
| PESIMYPKFTT [NTRK3_Y744_R745P] | 0.748 | 0.594 | 0.596 | 0.397 | 0.794 | 1.09 | 0.595 | 0.656 | 0.707 | 0.717 | 0.549 | 0.579 | 0.739 | 0.586 | 0.66 | 0.513 |
| PFNAEYGGGGG [AKR1B10_Y316] | 0.554 | 0.417 | 0.379 | 0.285 | 0.802 | 1.49 | 0.43 | 1.06 | 1.14 | 0.627 | 0.871 | 0.879 | 1.66 | 0.693 | 1.19 | 1.35 |
| PFTRNYYVRAV [CYBA_Y87] | 0.799 | 1.21 | 0.615 | 0.558 | 0.792 | 1.29 | 0.747 | 0.704 | 0.614 | 0.85 | 0.422 | 0.608 | 0.666 | 1.41 | 1.16 | 0.753 |
| PGVNFYFRVSA | 0.759 | 0.701 | 0.424 | 0.599 | 1.88 | 2.13 | 1.37 | 1.14 | 0.653 | 1.53 | 0.708 | 0.743 | 0.817 | 0.759 | 1.73 | 0.914 |
| PIMSFYAALID [RYR1_Y2426_A2421P] | 0.969 | 0.585 | 0.571 | 0.487 | 1.33 | 1.46 | 0.905 | 0.706 | 0.49 | 1.54 | 0.734 | 0.732 | 0.647 | 1.24 | 1.58 | 1.45 |
| PIQLFYTRKNT [GHR_Y86_R89K] | 0.767 | 0.756 | 0.605 | 1.39 | 0.967 | 1.62 | 0.916 | 0.718 | 1.04 | 1.86 | 1.27 | 0.846 | 1.18 | 0.835 | 4.3 | 0.65 |
| PKSLFYLLLKP [TRPC6_Y775_L780P] | 1.16 | 1 | 0.851 | 0.684 | 1.12 | 2.1 | 1.31 | 0.708 | 0.439 | 1.73 | 0.568 | 0.963 | 0.513 | 0.569 | 1.64 | 0.759 |
| PLEGKYEWQEV [CDKN1B_Y74] | 0.675 | 0.516 | 3.88 | 0.465 | 0.743 | 1.49 | 0.816 | 0.619 | 0.379 | 1.11 | 0.613 | 0.452 | 0.483 | 0.572 | 1.29 | 0.57 |
| PLFGEYFTLQI [TP53_Y327_D324Y_YF] | 0.757 | 0.629 | 0.394 | 8.29 | 12.5 | 2.8 | 4.41 | 16.9 | 6.77 | 12.9 | 1.49 | 1.13 | 4.51 | 2.42 | 4.62 | 2.69 |
| PLKALYLQQRL [ATM_Y2969_P2974L] | 1.2 | 1.17 | 0.8 | 0.46 | 0.692 | 1.01 | 0.722 | 0.429 | 0.343 | 0.634 | 0.398 | 0.523 | 0.62 | 0.629 | 0.776 | 0.539 |
| PLKYLYPNIDR [STAT1_Y668_K673R] | 0.8 | 0.652 | 1.93 | 0.684 | 0.58 | 1.38 | 1.09 | 0.606 | 0.313 | 0.859 | 0.773 | 0.435 | 0.501 | 0.819 | 1.23 | 0.579 |
| PLLEFYRDIFT [CDAN1_Y713_YF] | 0.857 | 0.966 | 0.473 | 0.816 | 1.33 | 2.2 | 1.18 | 0.822 | 0.669 | 2 | 0.732 | 0.81 | 0.626 | 0.874 | 1.85 | 0.95 |
| PLQKTYNFNVL [SLC4A1_Y553_YF] | 1.11 | 0.633 | 0.53 | 0.43 | 0.593 | 0.903 | 0.627 | 0.554 | 0.602 | 1.05 | 0.383 | 0.426 | 0.477 | 0.645 | 0.686 | 0.709 |
| PQGVSYIFTID [DCX_Y103_R102S_YF] | 0.902 | 1.73 | 0.553 | 0.486 | 0.893 | 1.74 | 0.812 | 0.456 | 0.729 | 1.48 | 0.495 | 0.591 | 0.509 | 0.692 | 0.94 | 0.726 |
| PSELYYSKISP [SMG1_Y2254_G2258S] | 1.18 | 2.66 | 4.6 | 8.68 | 8.81 | 2.15 | 4.3 | 11.7 | 6.66 | 6.46 | 23.8 | 23.1 | 17.9 | 3.13 | 2.87 | 6.25 |
